In this test the target is HLA A2.1 molecule (human). Nature of the test: T2 cells, flow cytometry; P1Y variant against its natural peptide. For orientation: A flow cytometer gives signals particle by particle.

For the substance P1Y variant of gp100 209 (peptide), the DC50 Y1-DC50 WT was 2 h and the RA WT/RA Y1 came to 1.7.

These data come from patent US20040072240A1.
